Like-named read-outs stand apart in the source and are kept apart here.
What was measured:
[1] = molecular target: T1, Mouse GFRAL protein (Biacore analyte) (mouse, UniProt Q6SJE0 20-349, limits assumed); assay: Biacore SPR, antibody captured via anti-human Fc on CM5, GFRAL injected, 25 C
T1 construct: also called mGFRAL
T1 sequence (looked up): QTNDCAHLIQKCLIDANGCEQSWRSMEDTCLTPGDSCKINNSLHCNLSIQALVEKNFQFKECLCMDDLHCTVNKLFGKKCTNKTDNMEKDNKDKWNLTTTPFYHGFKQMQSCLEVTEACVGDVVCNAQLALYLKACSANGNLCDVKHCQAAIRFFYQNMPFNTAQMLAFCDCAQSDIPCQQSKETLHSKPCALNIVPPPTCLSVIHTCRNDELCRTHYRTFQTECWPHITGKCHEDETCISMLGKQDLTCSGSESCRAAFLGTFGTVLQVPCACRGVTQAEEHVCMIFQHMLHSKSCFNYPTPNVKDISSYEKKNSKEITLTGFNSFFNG
Method: (§1) Binding affinity assays were performed for three antibody strains 168A7, 8E10 and 26D7 based on the Biacore affinity assay. The binding affinities of purified antibodies to human or mouse GFRAL were assessed by measuring the equilibrium dissociation constants (KD). The anti-human Fc antibody was immobilized in the flow cell of the CM5 chip according to the instructions of the amino-coupled kit (catalogue number: BR100050, Cytiva). Purified antibodies (˜300 RU) were captured on flow cells 2, 3 and 4 using flow cell 1 as a reference. Human or mouse GFRAL protein (in an HBS-EP buffer) was then injected at a flow rate of 30 μL/min and the binding kinetics were evaluated at 25° C. The results were as follows (FIGS. 1A-1C, Table 4)

[2] = molecular target: T2, Human GFRAL protein (Biacore analyte) (human, UniProt Q6UXV0 19-351, limits assumed); assay: as above
T2 construct: also called hGFRAL
T2 sequence (looked up): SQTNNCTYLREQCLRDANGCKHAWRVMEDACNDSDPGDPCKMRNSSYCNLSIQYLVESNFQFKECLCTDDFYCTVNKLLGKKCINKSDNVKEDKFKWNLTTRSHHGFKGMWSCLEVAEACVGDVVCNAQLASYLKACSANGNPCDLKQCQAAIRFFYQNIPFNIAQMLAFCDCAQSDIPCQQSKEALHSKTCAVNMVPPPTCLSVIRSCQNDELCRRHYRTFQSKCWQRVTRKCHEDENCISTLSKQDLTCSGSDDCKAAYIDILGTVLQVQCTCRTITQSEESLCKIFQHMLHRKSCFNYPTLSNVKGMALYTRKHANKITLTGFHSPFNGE
Method: as §1

Human GFRAL-His protein = molecular target: T3, Human GFRAL-His protein (human, UniProt Q6UXV0 19-351); assay: ELISA, antigen coated on plate, purified antibody titrated, HRP anti-mouse IgG detection
T3 construct: also called human GFRAL-His fusion protein; not shown: His tag
T3 sequence (looked up): T2 sequence (looked up)
Method: (§2) The ELISA assay had the following protocols. Human GFRAL-His protein, cynomolgus monkey GFRAL-His protein, or mouse GFRAL-Fc protein were coated on 96-well plates, and after blocking the wells with PBS/1% BSA solution, the hybridoma supernatant or purified antibodies were added to the reaction wells. After incubation for 1 hour at room temperature, HRP-labeled anti-mouse IgG (Fab region) antibody was added to the reaction wells to incubate for an additional hour at room temperature. After the substrate and stop solution were added successively, the OD₄₅₀ values were read. The OD₄₅₀ values were used to verify and assess the binding ability of the antibodies to the GFRAL proteins.

[3] = molecular target: Cynomolgus monkey GFRAL-His protein (cynomolgus monkey); assay: as above
Method: as §2

Mouse GFRAL-Fc protein = molecular target: T4, Mouse GFRAL-Fc protein (mouse, UniProt Q6SJE0 20-349, limits assumed); assay: as above
T4 construct: not shown: Fc
T4 sequence (looked up): T1 sequence (looked up)
Method: as §2

[4] = molecular target: T5, Mouse GFRAL (mGFRAL) on HEK293 reporter cells with mouse RET (mouse, UniProt Q6SJE0 20-393); assay: cell-based or functional assay
T5 sequence (looked up): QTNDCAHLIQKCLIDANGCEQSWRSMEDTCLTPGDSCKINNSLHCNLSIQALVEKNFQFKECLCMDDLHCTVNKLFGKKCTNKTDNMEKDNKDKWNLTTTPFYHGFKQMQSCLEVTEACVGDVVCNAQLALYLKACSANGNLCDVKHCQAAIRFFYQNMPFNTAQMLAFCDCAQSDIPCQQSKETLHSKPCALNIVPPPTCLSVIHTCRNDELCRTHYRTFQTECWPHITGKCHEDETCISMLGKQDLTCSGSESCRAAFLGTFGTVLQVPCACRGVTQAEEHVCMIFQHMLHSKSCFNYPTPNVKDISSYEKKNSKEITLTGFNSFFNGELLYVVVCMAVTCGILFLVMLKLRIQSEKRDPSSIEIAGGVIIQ

[5] = molecular target: T6, Human GFRAL (hGFRAL) on HEK293 reporter cells with human RET (human, UniProt Q6UXV0 19-394); assay: cell-based or functional assay
T6 sequence (looked up): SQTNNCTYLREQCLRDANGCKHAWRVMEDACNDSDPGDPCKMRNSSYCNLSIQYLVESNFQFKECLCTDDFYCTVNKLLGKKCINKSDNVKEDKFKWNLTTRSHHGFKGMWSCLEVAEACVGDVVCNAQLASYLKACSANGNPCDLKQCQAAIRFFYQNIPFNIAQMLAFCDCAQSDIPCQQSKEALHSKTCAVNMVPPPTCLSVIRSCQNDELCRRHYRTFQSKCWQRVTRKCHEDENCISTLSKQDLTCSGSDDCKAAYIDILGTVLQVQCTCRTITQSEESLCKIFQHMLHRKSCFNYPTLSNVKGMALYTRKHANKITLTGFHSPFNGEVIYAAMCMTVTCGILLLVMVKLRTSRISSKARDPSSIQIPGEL

[6] = molecular target: Cynomolgus monkey GFRAL protein (Biacore analyte) (cynomolgus monkey); assay: Biacore SPR, humanized antibody captured via murine anti-human Fc on CM5, GFRAL injected in 2-fold dilutions, 25 C
Method: (§3) Specific protocols are as follows.
(§4) The surface of the CM5 chip was activated using 400 mM EDC and 100 mM NHS at a flow rate of 10 μl/min according to the instructions for the amino-coupled kit (Cat. No. BR100050, Cytiva). Then, the murine anti-human Fc antibody was immobilized in the test channel (Fc2) and the reference channel (Fc1) of the CM5 chip. Finally, the chip was blocked with 1 M ethanolamine at a flow rate of 10 μl/min; The humanized antibody (˜300 RU) diluted to 5 μg/ml was then captured on the assay channel (Fc2), and ligand capture were not carried out on the reference channel. Human, mouse or cynomolgus monkey GFRAL proteins (in a HBS-EP buffer) with 2-fold doubling dilutions was subsequently injected at a flow rate of 30 μL/min and the binding kinetics were evaluated at 25° C. The results are as follows (see Table 12)

[7] = molecular target: T1, Mouse GFRAL protein (Biacore analyte); assay: as above
Method: as §3, §4

[8] = molecular target: T2, Human GFRAL protein (Biacore analyte); assay: as above
Method: as §3, §4

[9] = molecular target: T5, Mouse GFRAL (mGFRAL) on HEK293 reporter …; assay: cell-based or functional assay; remark: listed apart in the source
[10] = molecular target: T6, Human GFRAL (hGFRAL) on HEK293 reporter …; assay: cell-based or functional assay; remark: listed apart in the source

B1: 26D7 (antibody, V domains shown)
VH: QIQLVQSGPELKKPGETVKISCKVSGYTFTDYGMNWVKQTPGKDLKWVGWINTYTGEPTYADDFKDRFAFSLEASASTAYLQINNLKNEDTATYFCARRYGYDAGIDCWGQGTTLTVSS
VL: NIVLTQSPPSLAVSLGQRATISCRASESVDSYGNNLMHWYQQKPGQPPKLLIYLASYLESGVPARFSGSGSRTDFTLTIDPVEADDAATYYCQQNNEDPWTFGGGTKLEIK
notes: Murine hybridoma antibody, purified; also called m26D7; M26D7
B1 showed a koff [1] of 0.000293 s⁻¹, a Kd [2] of 15.3 pM and a koff [2] of 9.37e-05 s⁻¹. The EC50 (Human GFRAL-His protein) was 70 pM, the EC50 [3] was 60 pM and the EC50 (Mouse GFRAL-Fc protein) was 150 pM. The “IC50 (nM), luciferase reporter gene assay, Mouse GFRAL/mouse RET” value (“IC50 (nM) … Mouse GFRAL/mouse RET” below) [4] was 0.76 nM and the “IC50 (nM), luciferase reporter gene assay, Human GFRAL/human RET” value (shortened to “IC50 (nM) … Human GFRAL/human RET”) [5] was 6.35 nM.

B2: 26D7H5bL5a (antibody, V domains shown)
VH: QVQLVQSGAEVKKPGASVKVSCKVSGYTFTDYGMNWVRQAPGQGLEWMGWINTYTGEPTYAQKLQGRVTFTTDTSTSTAYMELRSLRSDDTAVYYCARRYGYDAGIDAWGQGTTVTVSS
VL: DIQMTQSPSSLSASVGDRVTITCRASESVESYGNNLMHWYQQKPGKAPKLLIYLASYLESGVPSRFSGSGSGTDFTLTISSLQPEDFATYYCQQNNESPWTFGGGTKLEIK
notes: Humanized; also called humanized anti-GFRAL antibody 26D7H5bL5a
With B2 the Kd [6] was 246 pM, the koff [6] was 0.000231 s⁻¹ and the koff [7] was 0.000314 s⁻¹. The Kd [8] was 119 pM, the koff [8] was 0.000268 s⁻¹ and the “IC50 (nM) … Mouse GFRAL/mouse RET” value [9] was 0.9 nM. For the same binder, the “IC50 (nM) … Human GFRAL/human RET” value [10] was 11.8 nM.

B3: 165C5 (antibody, V domains shown)
VH: EVKLVESGGGLVKPGGSLKLSCAASGFTFSSYAMSWVRQTPEKRLEWVASITTGGSTYYLDSVRGRFTISRDNARNILSLQMSSLRSEDTAIYYCARSLIITATGFDYWGQGTTLTVSS
VL: DIVMTQSQKFMSISVGDRVNITCRASQDVGTAVAWYQQKPGQSPKLLIYSASNRYTGVPNRFTGSGSGTDFTLAISNMQSEDLADYFCQQYSIYYTFGGGTKLEIK
notes: Murine hybridoma antibody, purified
Binder B3 has an EC50 (Human GFRAL-His protein) of 270 pM, an EC50 [3] of 30 pM and an EC50 (Mouse GFRAL-Fc protein) of 120 pM. The “IC50 (nM) … Mouse GFRAL/mouse RET” value [4] was 7.22 nM and the “IC50 (nM) … Human GFRAL/human RET” value [5] was 55.5 nM.

B4: 26D7H3aL2c (antibody, V domains shown)
VH: QVQLVQSGAEVKKPGASVKISCKVSGYTFTDYGMNWVRQTPGQGLKWVGWINTYTGEPTYADDFKDRFTFTLDASTSTAYMELRSLRSDDTAVYFCARRYGYDAGIDAWGQGTLVTVSS
VL: EIVLTQSPGTLSLSPGERATLSCRASESVESYGNNLMHWYQQKPGQAPRLLIYLASYLESGVPDRFSGSGSGTDFTLTISRLEPEDFATYYCQQNNESPWTFGQGTKVEIK
notes: Humanized; also called humanized anti-GFRAL antibody 26D7H3aL2c
B4 showed a Kd [6] of 131 pM, a koff [6] of 0.000193 s⁻¹ and a koff [7] of 0.000215 s⁻¹. The Kd [8] was 46.5 pM, the koff [8] was 0.000125 s⁻¹ and the “IC50 (nM) … Mouse GFRAL/mouse RET” value [9] was 1.9 nM. The “IC50 (nM) … Human GFRAL/human RET” value [10] was 8.3 nM.
